This is an account of results in publication PMC3515450, “Mechanistic and Structural Understanding of Uncompetitive Inhibitors of Caspase-6” (PLoS ONE, 2012).

Data set [1] has as its target T1, caspase-3 (Homo sapiens, UniProt P42574).
T1 construct: as the catalytic domain consisting of large p20 and small p10 subunits without prodomain; made in house
T1 sequence (P42574 29-175 limits assumed): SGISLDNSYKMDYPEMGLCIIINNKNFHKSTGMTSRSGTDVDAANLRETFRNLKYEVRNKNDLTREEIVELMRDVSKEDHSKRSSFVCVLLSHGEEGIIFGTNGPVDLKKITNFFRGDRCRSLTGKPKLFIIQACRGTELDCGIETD
T1 sequence (P42574 176-277 limits assumed): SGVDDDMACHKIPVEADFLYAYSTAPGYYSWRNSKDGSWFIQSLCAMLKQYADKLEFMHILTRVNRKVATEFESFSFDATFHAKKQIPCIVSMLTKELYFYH
As to the kind of experiment: Caspase-3 enzymatic assay with divalent R110 substrates. The format is biochemical. The settings on record: caspase-3. The protocol: (§1) The in vitro enzymatic caspase assays utilize synthetic tetrapeptide substrates labeled with the fluorophores Rhodamine110 (R110) or 7-amino-4-methylcoumarin (AMC) at the P1 aspartic acid (Asp) residue. All assays were performed in 384-well plates in 12 µL reaction volume consisting of enzyme, substrate and indicated concentration of inhibitor or DMSO in assay buffer (50 mM HEPES [pH 7.0], 25 mM MgSO4, 0.5 mM EGTA, 5 mM Glutathione (GSH), 0.01% Triton X-100 containing 0.1% Bovine Gamma Globulin (BGG)). All inhibitors were serially diluted in 100% DMSO prior to dilution in assay buffer and transfer to assay plate. DMSO was diluted into assay buffer similarly for blank wells (no enzyme or compound) and final DMSO concentration was 1%. The concentration of caspase-6 used in enzymatic reactions typically varied between 1–10 nM depending on substrate used. Unless otherwise indicated, substrate concentration was within 3-fold of the determined Kmapparent (5 µM (Ac-VEID)2R110 [Kmapp = 8 µM]; 5 µM (Ac-DEVD)2R110 [Kmapp = 8 µM]; 25 µM (Ac-IETD)2R110 [Kmapp = 70 µM]; 25 µM (Ac-WEHD)2R110 [Kmapp = 70 µM]; 10µM Ac-VEID-AMC [Kmapp = 16µM]; 5 µM Ac-VEID-R110 [Kmapp = 8 µM]). The concentration of substrate utilized in selectivity assays for each caspase isoform was also held as close to Kmapparent as reasonably achievable (Table S1). Caspases-3 and -7 were expressed and purified at Genentech as the catalytic domain consisting of large p20 and small p10 subunits without prodomain. For all caspase enzymatic assays, the reaction plate was incubated at room temperature for 40 minutes and then read on Envision (Perkin Elmer) fluorescent plate reader at excitation/emission wavelengths of 485/535 nm (R110) or 350/450 nm (AMC).
The endpoint fluorescent emission (RFU) in each well was plotted as a function of inhibitor concentration and the 50% inhibition (IC50) values were determined using a nonlinear least squares fit of the data to a four parameter equation using Prism 5.0 software (GraphPad Software, San Diego, CA). […]

In data set [2] the target is T2, caspase-6 (Homo sapiens, UniProt P55212).
T2 construct: Residues 24-179 and 194-293 from caspase-6 cDNA (Origene) were cloned into pET-24b and pET-23b vectors; 6x histidine tag (C); made in house; host or cells: E. coli BL21 (DE3) pLysS
T2 sequence (P55212 24-179): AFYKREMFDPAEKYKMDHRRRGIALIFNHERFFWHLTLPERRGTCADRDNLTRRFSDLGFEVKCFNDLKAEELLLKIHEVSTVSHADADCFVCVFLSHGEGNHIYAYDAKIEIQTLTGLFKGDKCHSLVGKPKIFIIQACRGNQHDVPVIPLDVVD
T2 sequence (P55212 194-293): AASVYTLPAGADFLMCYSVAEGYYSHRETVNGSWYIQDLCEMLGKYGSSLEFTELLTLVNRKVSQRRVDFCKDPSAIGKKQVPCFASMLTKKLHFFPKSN
As to the kind of experiment: Caspase-6 enzymatic assay with fluorogenic tetrapeptide substrates. It counts as biochemical. As for the experimental part: as §1, with “(AMC). […]” for “(AMC).”
The endpoint fluorescent emission (RFU) in each well was plotted as a function of inhibitor concentration and the 50% inhibition (IC50) values were determined using a nonlinear least squares fit of the data to a four parameter equation using Prism 5.0 software (GraphPad Software, San Diego, CA). […] Ki values for Compound 3 were calculated using this equation: Ki = IC50/(Km/[S] +1). Concentration-response curves for each inhibitor were normalized to zero and 100% based on no enzyme or DMSO control, respectively. For steady-state kinetic analysis, initial reaction velocity (RFU/minute) was plotted against substrate concentration at each inhibitor concentration and the data was fit to a hyperbolic Michaelis-Menten model using Prism 5.0 software. Km (µM) and Vmax (RFU/minute) were calculated by using this equation: v = Vmax • [S]/Km+[S] where v = initial reaction velocity at indicated substrate concentration (S). Vmax values were normalized to zero and 100% based on no enzyme or DMSO control, respectively.
Expression and purification of caspase-6 for enzymatic assays: Human caspase-6 was expressed as the mature enzyme using a split construct. Residues 24-179 and 194-293 from caspase-6 cDNA (Origene) were cloned into pET-24b and pET-23b vectors (Novagen) respectively; the small subunit contained a C-terminal 6x histidine tag. Vectors were cotransfected into the E.coli strain BL21 (DE3) pLysS (Stratagene). Cells were grown from a single colony in 6L of 2xYT supplemented with ampicillin and kanamycin at 37 °C to an OD of ~ 0.5 and were subsequently cooled to 16 °C before overnight induction with 0.2 mM IPTG. Cells were harvested by centrifugation, resuspended in 100 mM NaCl, 100 mM Tris, pH 8.0, and lysed.

Data set [3] deals with T3, (Ac-VEID)2R110.
T3 sequence: VEID
As to the kind of experiment: SPR; as a2, but substrates (10 µM) mixed with compound 3 (1 µM) and injected together over the captured caspase-6 surfaces; apparent.

* marks the point of attachment. AMC = Cc1cc(=O)oc2cc(N*)ccc12; R110 = Rhodamine110 dye

In the case of “(VEID)2R110: Rhodamine110 dye conjugated to two valine-glutamate-isoleucine-aspartate tetrapeptides; fluorogenic substrate (Ac-VEID-R110; also: two VEID chains on one R110 dye) [reference compound]”, the Kmapp of substrate in data set [1] and in data set [2] (caspase-6) was 8 µM each time. In addition, the Kcat of substrate in data set [2] (caspase-6, kcat = Vmax/[E]) was 0.11 s⁻¹.
For the compound “Ac-VEID-AMC: monovalent VEID substrate in which R110 is replaced by amino-methyl coumarin (Ac-VEID-{AMC}; SMILES CC[C@H](C)[C@H](NC(=O)[C@H](CCC(=O)O)NC(=O)[C@@H](NC(C)=O)C(C)C)C(=O)N[C@@H](CC(=O)O)C(=O)Nc1ccc2c(C)cc(=O)oc2c1) [reference compound]”, the Kmapp of substrate in data set [2] (caspase-6) is 16 µM.
Consider “mature C163A-caspase-6 with C-terminal avi-tag”, for which the “apparent KD with compound 3 (dissociation of both compound and substrate)” value in data set [3] is recorded as “an apparent KD of ∼200 nM”.
On to `COc1ccc(-c2cc(C(=O)NC(Cc3ccccc3)C(=O)O)c(C)o2)cc1OC` (centres unmarked) [Compound 2], for which, in data set [2] (caspase-6, (VEID)2R110), the “binding efficiency index (BEI; pIC50/molecular weight)” value is reported as 11.5. Moreover, the IC50 in data set [2] (caspase-6 cleavage of (VEID)2R110 substrate, read-out: IC50) is 20 µM.
Turning to “apo-caspase-6 with C-terminal avi-tag, biotinylated”, in data set [3], the “apparent KD with compound 3 (dissociation of both compound and substrate)” value is on record as “an apparent KD of ∼200 nM”.
